{"source": "patent US20250250361A1", "about": "“ANTI-PLA2G10 ANTIBODIES AND METHODS OF USE” (Yale University, priority 2022, published 2025)", "molecules": {"B1": {"name": "anti-PLA2G10 antibody 1C11 (mouse IgG2a) (antibody, V domains shown)", "VH": "QVTLKESGPGILHPSQTLSLTCSFSGFSLNTFGLGVGWVRQPSGKGQEWLAHIWWDDDRYYNPPLKSRLTISKDPSKNQVFLTIPNVNTANTATYYCTQILPHWVAYWGQGTTLTVSS", "VL": "DIQMNQSPSSLSASLGDTITISCHASQNINVWLSWYQQKPGNIPKLLIYKASNLHTGVPSRFSGSGSGTGFTFTISSLQPEDIATYFCQQGQSYPFTFGGGTKLELK", "notes": "also called 1C11 antibody; anti-PLA2G10 mAb IC11"}, "B2": {"name": "1C11: anti-PLA2G10 antibody clone, VH SEQ ID NO: 1, VL SEQ ID NO: 2; binds human and mouse PLA2G10 (antibody, V domains shown)", "VH": "QVTLKESGPGILHPSQTLSLTCSFSGFSLNTFGLGVGWVRQPSGKGQEWLAHIWWDDDRYYNPPLKSRLTISKDPSKNQVFLTIPNVNTANTATYYCTQILPHWVAYWGQGTTLTVSS", "VL": "DIQMNQSPSSLSASLGDTITISCHASQNINVWLSWYQQKPGNIPKLLIYKASNLHTGVPSRFSGSGSGTGFTFTISSLQPEDIATYFCQQGQSYPFTFGGGTKLELK"}}, "key": {"[1]": {"tested_on": "T cell migration inhibited by PLA2G10", "assay": "high throughput T cell mobility assay (TCMA)", "assay_type": "cell-based", "details": "activated primary human T cells from 3 donors, CXCL11 100 ng/ml", "experimental": "A high throughput T cell mobility assay (TCMA) was performed to assess the ability of the antibody clones identified in Example 1 and varespladib (a small molecule PLA2G10 inhibitor) to attenuate the inhibitory effect of PLA2G10 on T cell migration. The TCMA was built by modifying Boyden's two-chamber assay in a 96-well format, in which two chambers were separated by a porous membrane. While activated T cells on the upper chamber are largely held by the membrane, exposure to chemokines allows T cells to transpass the membrane and migrate into the lower chamber. In the assay, HEK293T cells 5×10^4 were seeded in a reservoir plate (the lower chambers) arrayed with human secretory molecule encoding genes and transiently transfected using jetPRIME® transfection reagent (Polyplus transfection) as described previously (Yao et al., (2011) Immunity 34:729-740). After overnight incubation, the culture supernatant was replaced by a fresh migration medium (RPMI-1640 containing 1% fetal calf serum from Atlanta Biologicals) and further cultured for 2-3 days. […] At the end of incubation, the upper chamber was removed, and cells in the lower chambers were collected and stained with AF647-labeled anti-human CD45 mAb (clone 2D1, Biolegend) and numerated by the Mirrorball® plate reader (TPP Labtech). […]"}, "[2]": {"target": "T1, recombinant human PLA2G10 protein (Origene) (human, UniProt O15496 43-165, limits assumed)", "T1 construct": "also called rhPLA2G10; hPLA2G10", "T1 sequence (looked up)": "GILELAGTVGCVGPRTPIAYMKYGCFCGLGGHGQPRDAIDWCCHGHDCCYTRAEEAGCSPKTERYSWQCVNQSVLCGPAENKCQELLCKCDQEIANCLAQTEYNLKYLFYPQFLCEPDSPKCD", "assay": "one-way ELISA, plates coated with human PLA2G10 (Origene)", "experimental": "(§1) A one-way ELISA was performed to assess antibody binding to PLA2G10. Plates were coated with either human PLA2G10 (Origene) or mouse PLA2G10 (NP285) at 0.5 mg/ml and tested using a PLA2G10 ELISA kit (Elabscience, China) per the manufacturer's instructions. Testing results were normalized as (Vt−Vm)/Vm, where Vt indicates the value calculated according to the standard curve and Vm indicates the mean value of all samples tested on the same ELISA plate."}, "HT-29 tumors": {"tested_on": "HT-29 tumors", "assay": "HT-29 xenograft tumor model in NSG mice", "assay_type": "in vivo", "details": "compared to control", "experimental": "FIG. 6A is a graph showing HT29 xenograft tumor growth over time with anti-PLA2G10 antibody 1C11 or control treatment. Data were analyzed by one-way ANOVA. * p<0.01. FIG. 6B is a series of pictures showing 1C11 or control antibody treated tumors at day 37. Tumors were surgically removed, formalin-fixed, and sectioned. Tumor tissue sections were studied by immunohistochemistry using an anti-human CD3 mAb. FIG. 6C is a graph showing quantification of CD3+ T cells in control antibody or 1C11 treated tumors (hpf, high power field x400). Cell numbers of ten […] hpfs were randomly picked in each sample for counting and average cell counts were plotted. Box whisker plots depict the mean, the minimum to the maximum value, and each data point was shown. Data were analyzed by the Mann-Whitney test. * p<0.05.\nThe human colon adenocarcinoma cell line HT-29 secretes PLA2G10 and forms tumors when inoculated in immunodeficient NSG (NOD scid gamma) mice subcutaneously."}, "MC38-2G10 tumors": {"tested_on": "MC38-2G10 tumors", "assay": "MC38-2G10 syngeneic tumor model", "assay_type": "in vivo", "details": "established tumors in mice, antibodies at 6, 11 and 16 days after inoculation", "experimental": "FIG. 4 is a graph showing MC38-2G10 tumor growth in mice over time with anti-PLA2G10 antibody 1C11, anti-PD-1 antibody G4, or combined treatment. Mice were treated with antibodies at 6, 11, and 16 days after tumor inoculation. Representative results of two independent experiments are shown as the mean±SEM. Data were analyzed by two-way ANOVA. * p<0.05, ns=not significant.\nTo investigate the in vivo effects of anti-PLA2G10 antibody 1C11, a tumor cell line, MC38-2G10, was established by lentivirus-mediated gene transduction to stably express murine PLA2G10 homolog."}, "human PLA2G10": {"target": "T2, human PLA2G10 (Homo sapiens, UniProt O15496)", "T2 construct": "purchased Origene", "T2 sequence (O15496 43-165)": "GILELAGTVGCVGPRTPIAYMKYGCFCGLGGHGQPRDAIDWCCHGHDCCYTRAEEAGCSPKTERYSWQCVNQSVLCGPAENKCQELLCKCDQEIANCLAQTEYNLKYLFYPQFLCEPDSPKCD", "assay": "one-way ELISA, antibody binding to human PLA2G10", "details": "plates coated with human PLA2G10", "experimental": "as §1"}, "mouse PLA2G10": {"target": "T3, mouse PLA2G10 (Mus musculus, UniProt Q9QXX3)", "T3 construct": "NP285", "T3 sequence (Q9QXX3 29-151)": "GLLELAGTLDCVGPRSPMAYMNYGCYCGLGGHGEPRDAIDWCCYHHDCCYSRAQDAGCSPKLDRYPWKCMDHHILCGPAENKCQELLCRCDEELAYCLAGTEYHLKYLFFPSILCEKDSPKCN", "assay": "one-way ELISA, antibody binding to mouse PLA2G10", "details": "plates coated with mouse PLA2G10", "experimental": "as §1"}, "KPC-2G10 tumors": {"tested_on": "KPC-2G10 tumors", "assay": "KPC-2G10 syngeneic tumor model", "assay_type": "in vivo, mice", "experimental": "FIG. 5A is a graph showing KPC-2G10 tumor growth in mice over time with anti-PLA2G10 antibody 1C11, anti-PD-1 antibody G4, or combined treatment. Mice were treated with antibodies at 5, 10, and 15 days (+20-day treatment for 1C11) after tumor inoculation. Representative results of two independent experiments are shown as the mean±SEM. Data were analyzed by one-way ANOVA. FIG. 5B is a graph showing quantification of CD3+T cells by immunohistochemistry staining with an anti-CD3 mAb in the KPC-2G10 tumors with or without 1C11 treatment. Cell numbers of five hpfs were randomly picked in each sample for counting and average cell counts were plotted. Box whisker plots depict the mean, the minimum to the maximum value, and each data point was shown. Data were analyzed by the Mann-Whitney test. * p<0.05.\nSimilar results were also obtained in another syngeneic mouse model using the KPC pancreatic cancer subline, which has moderate TILs when growing subcutaneously (Sun et al., 2021, Sci Transl Med 4, 127ral37) (FIG. 5A)."}, "[3]": {"target": "T4, recombinant human PLA2G10 (rhPLA2G10) (Homo sapiens, UniProt O15496)", "T4 sequence (O15496 43-165)": "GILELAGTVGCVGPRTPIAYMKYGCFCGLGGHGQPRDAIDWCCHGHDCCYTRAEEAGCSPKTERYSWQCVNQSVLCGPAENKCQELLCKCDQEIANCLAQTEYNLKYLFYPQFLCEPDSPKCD", "assay": "sPLA2 assay kit, phospholipase enzymatic activity of human PLA2G10", "assay_type": "biochemical", "details": "rhPLA2G10 2.5 μg/ml, antibody 25 μg/ml, RT 30 minutes preincubation", "experimental": "(§2) The PLA2G10 enzymatic activity for hydrolysis of phospholipids was tested using a sPLA2 assay kit (Cayman Chemical, MI) according to manufacturer's instructions. Briefly, the 1,2-dithio analog of diheptanoyl phosphatidylcholine serves as a substrate for sPLA2s. Upon hydrolysis of the thioester bond at the sn-2 position by PLA2G10, free thiols are detected using DTNB (5,5′-dithio-bis-(2-nitrobenzoic acid)). Recombinant human PLA2G10 protein (rhPLA2G10) (0.5 μg, 2.5 μg/ml final concentration) was incubated with 1C11 antibody (5 μg, 25 μg/ml final concentration) at RT for 30 minutes before testing. Mouse PLA2G10 protein (mPLA2G10-IgFc) (0.32 mg/ml) was incubated with 1C11 or 2B12 antibody (1 mg/ml) at 37° C. for 45 minutes before testing."}, "[4]": {"tested_on": "mouse PLA2G10 (mPLA2G10-IgFc)", "assay": "sPLA2 assay kit, phospholipase enzymatic activity of mouse PLA2G10", "assay_type": "biochemical", "details": "mPLA2G10-IgFc 0.32 mg/ml, antibody 1 mg/ml, 37° C. 45 minutes preincubation", "experimental": "as §2"}, "[5]": {"details": "CD3+ T cells by immunohistochemistry"}}, "note": "Entries after “also recorded” stand apart in the source; their conditions may differ.", "data": [{"molecule": "CCc1c(C(=O)C(N)=O)c2c(OCC(=O)O)cccc2n1Cc1ccccc1", "note": "[varespladib, reference compound]", "values": [{"measurement": "reversal of T cell migration inhibited by PLA2G10", "setting": "[1]", "value": "reversed"}]}, {"molecule": "B1", "values": [{"measurement": "binding result", "setting": "[2]", "value": "binds"}]}, {"molecule": "B2", "values": [{"measurement": "T cell infiltration in HT-29 tumors", "setting": "HT-29 tumors; [5]", "value": "promoted T cell infiltration"}, {"measurement": "HT-29 xenograft tumor growth", "setting": "HT-29 tumors; subcutaneous", "value": "retarded tumor growth"}, {"measurement": "MC38-2G10 tumor growth", "setting": "MC38-2G10 tumors", "value": "did not induce the regression"}, {"measurement": "binding to human PLA2G10 protein", "setting": "human PLA2G10", "value": "recognized; also recorded: showed binding"}, {"measurement": "binding to mouse PLA2G10 protein", "setting": "mouse PLA2G10", "value": "recognized; also recorded: showed binding"}, {"measurement": "T cell infiltration in KPC-2G10 tumors", "setting": "KPC-2G10 tumors; [5]", "value": "promoted T cell infiltration"}, {"measurement": "KPC-2G10 tumor growth", "setting": "KPC-2G10 tumors; syngeneic mice, subcutaneous, antibodies at 5, 10, 15 days", "value": "responded partially"}, {"measurement": "reversal of T cell migration inhibited by PLA2G10", "setting": "[1]", "value": "reversed"}, {"measurement": "inhibition of phospholipase enzymatic activity of human PLA2G10", "setting": "[3]", "value": "inhibited"}, {"measurement": "inhibition of phospholipase enzymatic activity of mouse PLA2G10", "setting": "[4]", "value": "inhibited"}]}]}
